The target of experiment [1] is ErbB3 expressed on 4E9H3 cells (K562 cells stably transfected with erbB3 cDNA) (UniProt P21860). Description: Scatchard analysis of competitive 125I-HRG binding to 4E9H3 cells, in the presence of 100 nM 3-8D6 IgG.
For experiment [2] the target is unchanged. Kind of experiment: Scatchard analysis of competitive 125I-HRG binding to 4E9H3 cells, in the presence of 100 nM 3-8D6 Fab.
The target is the same in experiment [3]. Kind of experiment: Scatchard analysis of competitive 125I-HRG binding to 4E9H3 cells, no antibody.

Chain of UniProt P21860 (P21860 20-1342 limits assumed): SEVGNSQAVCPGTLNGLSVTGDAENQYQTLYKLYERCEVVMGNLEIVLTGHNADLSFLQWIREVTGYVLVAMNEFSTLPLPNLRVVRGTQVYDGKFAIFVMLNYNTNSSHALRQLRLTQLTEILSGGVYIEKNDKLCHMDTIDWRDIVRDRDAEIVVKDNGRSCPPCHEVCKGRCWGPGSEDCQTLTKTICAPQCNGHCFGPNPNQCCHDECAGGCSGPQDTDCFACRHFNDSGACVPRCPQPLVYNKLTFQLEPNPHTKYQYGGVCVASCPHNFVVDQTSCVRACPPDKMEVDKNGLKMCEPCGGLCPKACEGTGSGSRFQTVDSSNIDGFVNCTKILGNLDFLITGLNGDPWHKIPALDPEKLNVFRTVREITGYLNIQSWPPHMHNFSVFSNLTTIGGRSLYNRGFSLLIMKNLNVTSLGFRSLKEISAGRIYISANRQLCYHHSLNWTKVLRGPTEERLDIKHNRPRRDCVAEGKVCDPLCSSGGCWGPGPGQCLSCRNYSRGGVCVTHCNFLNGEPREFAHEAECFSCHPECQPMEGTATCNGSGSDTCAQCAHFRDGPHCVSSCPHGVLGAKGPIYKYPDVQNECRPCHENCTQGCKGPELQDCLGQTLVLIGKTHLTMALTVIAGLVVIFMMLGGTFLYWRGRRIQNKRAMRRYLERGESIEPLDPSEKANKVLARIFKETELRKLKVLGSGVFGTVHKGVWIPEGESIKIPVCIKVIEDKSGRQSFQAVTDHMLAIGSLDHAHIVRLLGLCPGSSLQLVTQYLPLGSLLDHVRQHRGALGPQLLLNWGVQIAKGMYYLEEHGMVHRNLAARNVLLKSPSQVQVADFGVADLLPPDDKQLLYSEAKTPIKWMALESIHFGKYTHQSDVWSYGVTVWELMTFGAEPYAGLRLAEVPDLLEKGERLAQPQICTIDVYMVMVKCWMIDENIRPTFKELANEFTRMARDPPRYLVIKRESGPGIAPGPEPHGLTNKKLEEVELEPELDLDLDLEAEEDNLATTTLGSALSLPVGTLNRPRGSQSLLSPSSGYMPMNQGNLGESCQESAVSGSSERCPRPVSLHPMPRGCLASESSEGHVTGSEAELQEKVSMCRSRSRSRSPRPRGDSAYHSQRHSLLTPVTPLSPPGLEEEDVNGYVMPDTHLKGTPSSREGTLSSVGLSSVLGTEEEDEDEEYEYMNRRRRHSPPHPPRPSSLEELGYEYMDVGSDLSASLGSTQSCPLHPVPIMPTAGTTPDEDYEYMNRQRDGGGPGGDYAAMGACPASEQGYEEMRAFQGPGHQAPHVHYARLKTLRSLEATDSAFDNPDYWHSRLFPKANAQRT

Regarding “HRGβ1(177-244), EGF-like domain of the β1 isoform of heregulin (from UniProt Q02297 177-244) (ligand)”, the Kd (as a rule, the free concentration of one partner at which half of the binding sites on the other are occupied at equilibrium, for simple one-to-one binding) in experiment [1] was 210 pM; in experiment [2], 280 pM; in experiment [3], 1200 pM. Further, the values for the Sites/Cell in experiment [1], in experiment [2] and in experiment [3] were 240000 sites/cell, 290000 sites/cell and 360000 sites/cell, respectively.

These data come from patent EP1728802A2.
